Measurements taken from the DeepSol protein solubility set.

experiment: soluble on expression in E. coli; label from the status in PepcDB or PDB records

| Sequence | soluble on expression in E. coli |
| --- | --- |
| MGSDKIHHHHHHMTNLVTLENVSVAFGQRRVLSDISLALTPGKILTLLGPNGAGKSTLVRVVLGLVAPTEGVIKRDARLRIGYVPQKLHLDATLPLTVSRFLRLRPGTRKDDILPALKRVQAGHLIDAPMQKLSGGETQRVLLARALLNRPQLLVLDEPTQGVDVNGQVALYDLINQLRHELDCAVLMVSHDLHLVMAKTDEVLCLNQHICCSGAPEVVSMHPEFISMFGPRGAEQLGIYRHHHNHRHDLQGRIVLRRGNSR | not soluble |
| MGSDKIHHHHHHMTPDQYCQEKAVQSGSSFYYSFLYLPPERRRAITALYAFCREVDDVVDECTEASVARVKLAWWRQEVAAIFDAGGNKPSHPVAQALAGVASTFNLTADRLNEIIDGMEMDLDYNRYADFDTLRHYCYHVASVVGLCSAEIFGYRNPKTLEYAQDLGLAFQLTNIIRDVGEDARRDRIYLPQDELARFGVSNEDILQSRETDNFRRLIEFQIDRAESYYANAFAALPEEDRKSQRSGIIMAAIYQALLKEIKADGCHVMRQRISLTPLRKLWIAWKTWMKG | not soluble |
| MGSDKIHHHHHHMTPIAQRDGQAIQLVGFDGDDTLWKSEDYYRTAEADFEAILSGYLDLGDSRMQQHLLAVERRNLKIFGYGAKGMTLSMIETAIELTEARIEARDIQRIVEIGRATLQHPVEVIAGVREAVAAIAADYAVVLITKGDLFHQEQKIEQSGLSDLFPRIEVVSEKDPQTYARVLSEFDLPAERFVMIGNSLRSDVEPVLAIGGWGIYTPYAVTWAHEQDHGVAADEPRLREVPDPSGWPAAVRALDAQAGRQQ | not soluble |
| MGSDKIHHHHHHMTPSAGLGLKSQHYGDAIACDAEGLWFEVHPENYMSAGGPRLAALEAVRARRPVSLHGVGLSLAADTDPDPEHLQALKRLVDRFDPFVVSEHLAWSTHRGAHHPDLLPFPRTRAALDRICGNVARMQDALQRRVLIENPSLYLPLKGHALDEVDFLEALATRTGCGLLVDVNNVFVSAQNLGYAPETYLDALPAHAIGEIHLAGHAPDPGGSNLLIDTHGAPVAEVVWTLYARLIARIGPRPTLIERDDDIPDFAALMAERNRAVAVLASGQTAREPAHV | not soluble |
| MGSDKIHHHHHHMTQNLRVIIDARMVNKHLHGIARYTYEIIKHMSYEDNVEMILLVNDLEEASKIFGQFNNIKFKRMRSKFLSIFEQIELPMIVNKYKNMAIFHSPSFVASPFIKCKMIMTIHDLNHLKFPQYYTPFHKYYYKYIVKKCALKSKKILTVSEFSKEEIFKWIKCDRDKIKVTYNGIDPKFHVISDAEKLKKIKEKYKLPDRFILYIGNLKPHKNVETLVKAMRFIDGKVKLVINGTINKSISEILDKFNLLEKVKFIGYVNEDELPLLYNLASVFVFPSLYEGFGLPPLEAAVCGCKVIISDISSLSEIMSDYGVKVNPLDSKGMAREIKKILENSSIDICNKEKETFVQKYSWNKTSSKTLEIYKEINKEFL | not soluble |
| MGSDKIHHHHHHMTQQNGKVYLVGAGPGDVAYLTVKAYNLLATAQVLVYDALVDEQLLQCVSPDCLKLDVGKRGGKPSTPQADINHLLVKYCQEGALVVRLKSGDPFIFGRCTSEIEALKAAGCKFEVVPGISSSIAAPLLAGIPLTDPVMSRCFAVLTAHEPEVLDWEALSRLDTLVILMGGKNLADIINELLRRGQSHLTPIAIIRWAGTPSQQIWTGQLGDILEQTRGLSLSPAVIVIGEVVGLRKYLQPEKIFPENSTTPMSSNQPLTGKTILVTRSSGQSSQFSDRLTTLGATVIEMPALEIGSPSSWEELDQAIANLSQFEWLILTSTNGVDYFFERLNLQGKDTRALAGVKIAVVGEKTSQSLKQRGIQADFIPPNFVADSLVEHFPESLLNKKILFPRVESGGREILVKELSAKGAEVIEVAAYQSCCPSSIPPAAELALKNHTIDIITFASSKTVQFFHQLVDNIFPHNIPNTLAGICIASIGPQTSKTCHTLLGRVDVEAEEYTLDGLTQSIINWALKV | not soluble |
| MGSDKIHHHHHHMTQTQPKFLTIYNTLYKEIQIGKYPSGHALPTEKELCARFDVSRMTLRQAIKLLAEDGIVESTRGKGHFVIPQTNAQHASSMDQFKHPLDQILLARVSMSSINYRVDLESEYTNHLFANHPSAVIAMERYYQKKDNHSKQADAFCFTFIPLNVIDTFKVNTQNEDDMKTFVEQTIYSNAYQSDLKMSITKAPRFKNHSHVFDGDTHCWLIIETLYAQTPYPIMINKWYIPQEISELTLTRIRQSDY | not soluble |
| MGSDKIHHHHHHMTQVIPPRCDTCACDDADWCHLQETTKLLLLATAQIELSLTDGDHNVTGLGQLFTQMAGHLTEVNRHLHGTADTPAAILAHSDSLMQAIDSGVMAFQFYDRISQRLNHVITALSLMEAMLGDEQRRHSQAAWTNLQGEIQAHYSLDCERQMFAALLEGVPIHEALNAYRETHLHQTKQDVELF | not soluble |
